Experimental data taken from PMC7478166 (Hepatology (Baltimore, Md.), 2020).

What was measured:
Assay in all cases: BLI
[1] = molecular target: p52Shc lacking the PTB domain (p52ShcΔPTB), terminally biotinylated
[2] = molecular target: T1, p52Shc lacking SH2 domain (p52ShcΔSH2), terminally biotinylated (biotin, terminal (end not stated))
T1 chain: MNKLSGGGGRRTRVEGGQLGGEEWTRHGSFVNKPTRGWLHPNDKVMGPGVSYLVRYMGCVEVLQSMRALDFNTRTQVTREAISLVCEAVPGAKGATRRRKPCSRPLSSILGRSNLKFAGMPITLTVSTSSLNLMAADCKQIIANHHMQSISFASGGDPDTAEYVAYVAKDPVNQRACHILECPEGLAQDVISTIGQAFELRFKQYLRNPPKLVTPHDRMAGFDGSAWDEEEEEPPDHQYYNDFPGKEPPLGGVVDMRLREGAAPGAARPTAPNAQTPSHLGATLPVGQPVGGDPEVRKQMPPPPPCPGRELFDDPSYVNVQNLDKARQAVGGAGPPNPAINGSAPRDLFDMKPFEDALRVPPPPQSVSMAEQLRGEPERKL

[3] = molecular target: T2, full-length p52Shc, terminally biotinylated (UniProt P29353-2 1-473, biotin, terminal (end not stated))
T2 sequence (looked up): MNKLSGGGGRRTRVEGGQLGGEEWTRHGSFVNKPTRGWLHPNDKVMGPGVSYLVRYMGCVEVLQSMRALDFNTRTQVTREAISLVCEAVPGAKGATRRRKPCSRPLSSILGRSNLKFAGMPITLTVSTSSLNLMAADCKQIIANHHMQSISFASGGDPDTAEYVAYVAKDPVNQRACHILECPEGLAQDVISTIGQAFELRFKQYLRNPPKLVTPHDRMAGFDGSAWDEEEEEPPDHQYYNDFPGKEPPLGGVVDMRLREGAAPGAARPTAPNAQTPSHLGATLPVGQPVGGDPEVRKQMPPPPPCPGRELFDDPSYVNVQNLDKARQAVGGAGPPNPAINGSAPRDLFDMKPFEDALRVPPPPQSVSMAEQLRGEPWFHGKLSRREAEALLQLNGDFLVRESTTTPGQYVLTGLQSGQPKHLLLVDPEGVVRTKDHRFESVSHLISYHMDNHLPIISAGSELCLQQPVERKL

[4] = molecular target: T3, non-phosphorylated full size p52Shc (treated with alkaline phosphatase) (UniProt P29353-2 1-473, biotin, terminal (end not stated))
T3 sequence (looked up): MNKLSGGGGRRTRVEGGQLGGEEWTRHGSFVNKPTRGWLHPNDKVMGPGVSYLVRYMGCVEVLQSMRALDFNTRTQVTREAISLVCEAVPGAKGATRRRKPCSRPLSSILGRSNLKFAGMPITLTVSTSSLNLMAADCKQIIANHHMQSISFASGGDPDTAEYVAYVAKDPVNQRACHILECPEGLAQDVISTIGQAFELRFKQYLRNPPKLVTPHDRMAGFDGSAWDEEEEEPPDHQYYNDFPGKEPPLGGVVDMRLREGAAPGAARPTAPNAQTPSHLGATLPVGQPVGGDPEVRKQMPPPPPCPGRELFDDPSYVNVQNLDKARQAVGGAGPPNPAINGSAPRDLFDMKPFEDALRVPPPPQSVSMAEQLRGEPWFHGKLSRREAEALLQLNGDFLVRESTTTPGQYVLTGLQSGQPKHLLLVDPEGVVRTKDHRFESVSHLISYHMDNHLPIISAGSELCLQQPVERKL

Row | Molecule | fold weaker affinity than full-length p52Shc [1] [fold] | EC50 [2] [nM] | Kd [3] [nM] | Kd [4] [nM]
1 | p47^phox::His (not biotinylated) (from UniProt P14598 1-390) (natural protein) | 10 |  |  | 
2 | p47^phox::His (not biotinylated) (natural protein, UniProt P14598 1-390, looked up) MGDTFIRHIALLGFEKRFVPSQHYVYMFLVKWQDLSEKVVYRRFTEIYEFHKTLKEMFPIEAGAINPENRIIPHLPAPKWFDGQRAAENRQGTLTEYCSTLMSLPTKISRCPHLLDFFKVRPDDLKLPTDNQTKKPETYLMPKDGKSTATDITGPIILQTYRAIANYEKTSGSEMALSTGDVVEVVEKSESGWWFCQMKAKRGWIPASFLEPLDSPDETEDPEPNYAGEPYVAIKAYTAVEGDEVSLLEGEAVEVIHKLLDGWWVIRKDDVTGYFPSMYLQKSGQDVSQAQRQIKRGAPPRRSSIRNAHSIHQRSRKRLSQDAYRRNSVRFLQQRRRQARPGPQSPGSPLEEERQTQRSKPQPAVPPRPSADLILNRCSESTKRKLASAV |  | > 50000 | 200 | 780
